In publication PMC7117317 (Veterinary Microbiology, 2019):

B1: Nb45 (VHH)
VHH: QVQLQESGGGSVQSGGSLRLSCARSGYARRIYSMAWFRQAPGKEREGVAILNDDGNPTYAGSVKGRFTISRDNAKNTLYLQMNSLKPEDTAMYYCAADLTAQSYTRDRLLTSAYNVWGQGTQVTVSS
B2: Nb5 (VHH)
VHH: QVQLQESGGGSVQSGGSLRLSCAASTYTYSSGCMGWFRQAPGKEREGVATIDSDGSTTYADSVKGRFTISQDNAKNTLQLQMNSLKPEDTAMYYCAADDFWICSIIGRPGVADFRYWGQGTQVTVSS
B3: Nb60 (VHH)
VHH: QVQLQESGGGSVQPGGSLRLSCAASGFAVSSVAMSWVRQAPGKGLEWVSSINRYGFRVYADSVTGRFTISRDNAKNTLYLQLNSLKTEDTAMYYCSKDDDANWLNGRRGQGTQVTVSS
B4: Nb54 (VHH)
VHH: QVQLQESGGGSVQSGGSLRLSCAASTYTYNNYCMGWFRQAPGKEREGVASIERFGHTIFADSVKGRFTISRDNTKNTLYLQMNSLKPEDTAMYYCATERPSAYCSDSFTFNYWGQGTQVTVSS
B5: Nb100 (VHH)
VHH: QVQLQESGGGSVQSGGSLRLSCAASGYRRYCMAWFRQAPGKEREGVASIRSDGSTRYADSVKGRFSISQDNAENTLYLQMNSLKPEDTAMYYCAADSSAGCYSVHNSLLARSTYNYWGQGTQVTVSS
B6: Nb114 (VHH)
VHH: QVQLQESGGGSVQSGGSLRLSCAASGYTYQTYSMGWFRQAPGKEREGVAAIDDDGSTMYADSVKGRFTISQDSAKNTLYLQMNSLKPEDTAVYYCAASGFRGLLEFMRNIWVDYWGQGTQVTVSS
B7: Nb20 (VHH)
VHH: QVQLQESGGGSVQSGGSLRLSCRAVDGSGACMGWFRQAPGKEREGVAVIARDGSTNYAHSVRGRFTISQDNAKNTLYLQMNGLKPDDTAMYYCAAGPRFRSCSTSPSFYTSWGQGTQVTVSS

Molecular target: BVDV NS5B-His recombinant protein (Bovine viral diarrhea virus 1, strain …, UniProt P19711)
Test: ELISA

Sequence of BVDV NS5B-His recombinant protein (P19711 whole entry, looked up): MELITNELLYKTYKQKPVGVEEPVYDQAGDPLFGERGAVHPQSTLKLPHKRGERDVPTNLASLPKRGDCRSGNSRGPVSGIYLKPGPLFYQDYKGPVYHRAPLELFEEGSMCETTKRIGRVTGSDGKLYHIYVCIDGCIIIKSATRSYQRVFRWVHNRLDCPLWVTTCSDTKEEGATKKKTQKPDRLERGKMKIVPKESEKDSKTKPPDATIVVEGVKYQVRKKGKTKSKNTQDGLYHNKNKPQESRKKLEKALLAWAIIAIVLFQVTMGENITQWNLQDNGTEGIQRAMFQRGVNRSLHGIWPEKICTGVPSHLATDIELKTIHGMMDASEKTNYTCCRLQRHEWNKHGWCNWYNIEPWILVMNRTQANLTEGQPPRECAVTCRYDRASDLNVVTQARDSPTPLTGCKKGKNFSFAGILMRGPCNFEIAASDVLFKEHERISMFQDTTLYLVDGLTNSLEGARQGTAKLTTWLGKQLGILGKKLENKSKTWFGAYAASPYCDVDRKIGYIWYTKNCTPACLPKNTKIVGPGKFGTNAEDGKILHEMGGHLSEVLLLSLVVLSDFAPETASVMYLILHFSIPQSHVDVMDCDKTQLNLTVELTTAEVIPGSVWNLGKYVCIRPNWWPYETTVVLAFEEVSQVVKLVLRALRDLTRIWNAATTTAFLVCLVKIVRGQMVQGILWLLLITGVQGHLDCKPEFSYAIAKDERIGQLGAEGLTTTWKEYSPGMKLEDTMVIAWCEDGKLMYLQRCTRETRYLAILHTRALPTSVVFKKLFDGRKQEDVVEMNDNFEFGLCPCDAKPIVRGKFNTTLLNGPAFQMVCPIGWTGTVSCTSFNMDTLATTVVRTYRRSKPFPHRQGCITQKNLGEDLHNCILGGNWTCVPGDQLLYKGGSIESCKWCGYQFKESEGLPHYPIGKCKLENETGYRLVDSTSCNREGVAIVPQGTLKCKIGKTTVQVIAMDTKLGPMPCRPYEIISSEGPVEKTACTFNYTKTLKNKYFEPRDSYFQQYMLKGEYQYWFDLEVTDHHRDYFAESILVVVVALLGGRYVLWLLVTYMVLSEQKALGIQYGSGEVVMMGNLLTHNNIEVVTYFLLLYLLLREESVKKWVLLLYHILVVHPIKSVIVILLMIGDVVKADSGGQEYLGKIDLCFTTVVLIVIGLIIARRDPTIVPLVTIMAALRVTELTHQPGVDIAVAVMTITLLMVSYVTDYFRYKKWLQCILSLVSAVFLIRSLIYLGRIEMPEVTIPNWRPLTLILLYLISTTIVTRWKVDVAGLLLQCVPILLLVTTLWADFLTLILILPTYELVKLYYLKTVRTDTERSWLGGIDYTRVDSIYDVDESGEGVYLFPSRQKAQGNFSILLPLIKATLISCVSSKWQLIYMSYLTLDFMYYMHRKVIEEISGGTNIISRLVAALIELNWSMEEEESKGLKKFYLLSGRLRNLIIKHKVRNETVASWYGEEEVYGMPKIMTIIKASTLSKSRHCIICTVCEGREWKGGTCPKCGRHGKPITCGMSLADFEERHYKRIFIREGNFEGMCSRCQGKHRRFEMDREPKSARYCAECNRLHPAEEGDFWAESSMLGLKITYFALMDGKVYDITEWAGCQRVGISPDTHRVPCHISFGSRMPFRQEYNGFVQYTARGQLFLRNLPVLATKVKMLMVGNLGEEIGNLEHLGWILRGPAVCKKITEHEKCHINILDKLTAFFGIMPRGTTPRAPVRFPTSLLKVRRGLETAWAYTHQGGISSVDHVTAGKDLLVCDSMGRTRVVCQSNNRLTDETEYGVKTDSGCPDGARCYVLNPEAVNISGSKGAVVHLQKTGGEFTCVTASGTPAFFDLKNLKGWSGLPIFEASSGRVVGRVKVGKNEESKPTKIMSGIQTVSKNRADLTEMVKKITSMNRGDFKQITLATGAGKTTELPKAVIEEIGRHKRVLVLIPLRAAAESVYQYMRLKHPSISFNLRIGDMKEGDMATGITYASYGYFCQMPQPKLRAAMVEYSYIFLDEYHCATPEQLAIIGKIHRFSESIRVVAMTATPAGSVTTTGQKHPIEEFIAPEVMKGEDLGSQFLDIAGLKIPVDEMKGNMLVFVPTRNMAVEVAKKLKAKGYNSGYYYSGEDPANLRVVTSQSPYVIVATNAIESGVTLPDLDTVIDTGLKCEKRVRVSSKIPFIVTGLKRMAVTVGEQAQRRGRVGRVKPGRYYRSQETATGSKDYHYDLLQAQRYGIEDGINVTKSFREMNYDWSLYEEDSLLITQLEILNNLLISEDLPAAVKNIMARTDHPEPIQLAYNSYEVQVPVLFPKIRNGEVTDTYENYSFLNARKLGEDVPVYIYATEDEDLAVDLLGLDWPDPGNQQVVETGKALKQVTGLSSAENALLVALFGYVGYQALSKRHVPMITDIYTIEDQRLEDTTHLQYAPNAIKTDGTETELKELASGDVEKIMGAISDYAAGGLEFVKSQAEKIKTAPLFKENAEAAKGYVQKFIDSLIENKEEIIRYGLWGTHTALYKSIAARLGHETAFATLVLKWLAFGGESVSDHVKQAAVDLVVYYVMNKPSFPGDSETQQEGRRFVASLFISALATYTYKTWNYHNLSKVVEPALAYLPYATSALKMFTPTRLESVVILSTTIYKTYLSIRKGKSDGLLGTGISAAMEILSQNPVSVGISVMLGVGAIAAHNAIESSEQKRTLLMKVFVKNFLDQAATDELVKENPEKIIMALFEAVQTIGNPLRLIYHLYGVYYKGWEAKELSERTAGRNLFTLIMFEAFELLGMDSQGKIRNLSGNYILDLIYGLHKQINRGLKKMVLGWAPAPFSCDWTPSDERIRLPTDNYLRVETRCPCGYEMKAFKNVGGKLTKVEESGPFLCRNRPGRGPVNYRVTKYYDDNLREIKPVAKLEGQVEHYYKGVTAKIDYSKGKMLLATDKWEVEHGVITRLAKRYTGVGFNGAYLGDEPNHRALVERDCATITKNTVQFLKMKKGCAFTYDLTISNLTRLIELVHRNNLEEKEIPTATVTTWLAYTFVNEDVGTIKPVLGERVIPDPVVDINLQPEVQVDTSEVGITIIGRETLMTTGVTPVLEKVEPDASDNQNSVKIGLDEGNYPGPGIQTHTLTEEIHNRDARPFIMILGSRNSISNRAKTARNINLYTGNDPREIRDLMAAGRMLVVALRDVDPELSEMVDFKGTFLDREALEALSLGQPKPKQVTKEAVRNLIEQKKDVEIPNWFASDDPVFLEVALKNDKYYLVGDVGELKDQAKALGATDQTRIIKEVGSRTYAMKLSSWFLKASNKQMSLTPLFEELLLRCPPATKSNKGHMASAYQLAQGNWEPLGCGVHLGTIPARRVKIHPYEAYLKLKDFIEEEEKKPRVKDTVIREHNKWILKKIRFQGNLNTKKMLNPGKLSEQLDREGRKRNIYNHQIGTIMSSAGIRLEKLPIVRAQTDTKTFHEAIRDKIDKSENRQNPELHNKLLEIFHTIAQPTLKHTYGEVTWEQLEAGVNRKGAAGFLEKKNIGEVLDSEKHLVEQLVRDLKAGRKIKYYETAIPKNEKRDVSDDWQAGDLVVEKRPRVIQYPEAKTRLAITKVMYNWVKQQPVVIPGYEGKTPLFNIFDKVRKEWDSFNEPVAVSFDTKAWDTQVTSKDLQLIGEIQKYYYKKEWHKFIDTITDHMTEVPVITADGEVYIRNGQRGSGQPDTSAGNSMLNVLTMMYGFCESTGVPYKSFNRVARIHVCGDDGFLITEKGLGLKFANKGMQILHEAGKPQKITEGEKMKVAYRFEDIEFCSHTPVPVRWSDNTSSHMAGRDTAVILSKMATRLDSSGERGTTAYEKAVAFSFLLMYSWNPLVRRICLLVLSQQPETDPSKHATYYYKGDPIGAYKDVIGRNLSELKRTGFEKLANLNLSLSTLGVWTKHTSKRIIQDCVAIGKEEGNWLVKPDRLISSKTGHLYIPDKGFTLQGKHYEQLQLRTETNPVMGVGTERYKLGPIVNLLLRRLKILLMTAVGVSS

Row | Binder | binding result
1 | B1 | binds
2 | B2 | binds
3 | B3 | binds
4 | B4 | binds
5 | B5 | binds
6 | B6 | binds
7 | B7 | binds
